{
  "source": "patent US20040219637A1",
  "key": {"[1]": {"target": "Crotalus durissus terrificus venom", "assay": "ELISA, venom coat, dilution 1:3125"}, "[2]": {"target": "Crotalus durissus terrificus venom", "assay": "ELISA, venom coat, dilution 1:125"}, "[3]": {"target": "Crotalus durissus terrificus venom", "assay": "ELISA, venom coat, dilution 1:312,500"}, "[4]": {"target": "Crotalus durissus terrificus venom", "assay": "ELISA, venom coat, dilution 1:125", "remark": "listed apart in the source"}, "[5]": {"target": "Crotalus durissus terrificus venom", "assay": "ELISA, venom coat, dilution 1:625"}, "[6]": {"target": "Crotalus durissus terrificus venom", "assay": "ELISA, venom coat, dilution 1:25"}, "[7]": {"target": "Crotalus durissus terrificus venom", "assay": "ELISA, venom coat, dilution 1:625", "remark": "listed apart in the source"}, "[8]": {"target": "Crotalus durissus terrificus venom", "assay": "ELISA, venom coat, dilution 1:3125", "remark": "listed apart in the source"}, "[9]": {"target": "Crotalus durissus terrificus venom", "assay": "ELISA, venom coat, dilution 1:25", "remark": "listed apart in the source"}, "[10]": {"target": "Crotalus durissus terrificus venom", "assay": "ELISA, venom coat, dilution 1:5"}, "[11]": {"target": "Crotalus durissus terrificus venom", "assay": "ELISA, venom coat, dilution 1:62,500"}, "[12]": {"target": "Crotalus durissus terrificus venom", "assay": "ELISA, venom coat, undiluted"}},
  "data": [
    {"substance": "Preimmune IgY (egg yolk antibody of unimmunized hens)", "values": [
      {"measurement": "ELISA absorbance", "setting": "[1]", "result": "< 0", "unit": "absorbance"},
      {"measurement": "ELISA absorbance", "setting": "[2]", "result": 0.003, "unit": "absorbance"},
      {"measurement": "ELISA absorbance (412 nm)", "setting": "[3]", "result": 0.01, "unit": "absorbance"},
      {"measurement": "ELISA absorbance", "setting": "[4]", "result": "< 0", "unit": "absorbance"},
      {"measurement": "ELISA absorbance", "setting": "[5]", "result": "< 0", "unit": "absorbance"},
      {"measurement": "ELISA absorbance", "setting": "[6]", "result": 0, "unit": "absorbance"},
      {"measurement": "ELISA absorbance", "setting": "[7]", "result": 0, "unit": "absorbance"},
      {"measurement": "ELISA absorbance", "setting": "[8]", "result": 0.002, "unit": "absorbance"},
      {"measurement": "ELISA absorbance", "setting": "[9]", "result": 0.016, "unit": "absorbance"},
      {"measurement": "ELISA absorbance", "setting": "[10]", "result": "< 0", "unit": "absorbance"},
      {"measurement": "ELISA absorbance (412 nm)", "setting": "[11]", "result": 0.001, "unit": "absorbance"},
      {"measurement": "ELISA absorbance", "setting": "[12]", "result": 0.003, "unit": "absorbance"}
    ]}
  ]
}
